From the DeepSol protein solubility set

test: soluble on expression in E. coli; label from the status in PepcDB or PDB records

Sequence	soluble on expression in E. coli
LFSCIISSIETTKYVGISGVNKSVIDYTPAADMELVTIGESLSLKHPPIDATGCPSPATITRAAVDLLKIPIMTIDAGSYVKPKIPYISVDQRPTGDIQKGLGMDNSKELLNLGKIIGNNNIYDSLVIGESVPGGTTTALGVLLGLGYDARDKISSGSVENPKDLKLSVVENGLKTCKSEDVFDVLNAVGDKMMPVVAGMTISAVSKGK	not soluble
LGNEDFNSVIQQMAQGRQIEYIDIERPSTGGLGFSVVALRSQNLGKVDIFVKDVQPGSVADRDQRLKENDQILAINHTPLDQNISHQQAIALLQQTTGSLRLIVAREPVHTKSST	soluble
LKDFRYGIRLTGTTIKNEVISLGGKRIASGDIGAGKSVQMTEEGKPIKYFYGYNVIGIFQNEAQIKDYNERAAAATGNAGQQYQNNVGPGDLIYEDVDGDGYITANDRKDLGSPTPKFIGGLGISAFWKGFDLSIDFQGNFGNKIFNAKQVERFSGSDNWDRSFLDRWTPENPNTMTPRMTLEGNNYQVSSRYVESGSYVKLQTVELGYTFPKSWMQKVSVQNLRVYFSGNNLAYFTGYNGFTPEVLGGIDRQIYPVTATCRFGLNVTF	not soluble
LKPYCRPSTSVVLQGLPMVARKTLFMLPDGGGSAFSYASLPRLKSDTAVVGLNCPYARDPENMNCTHGAMIESFCNEIRRRQPRGPYHLGGWSSGGAFAYVVAEALVNQGEEVHSLIIIDAPIPQAMEQLPRAFYEHCNSIGLFATQPGASPDGSTEPPSYLIPHFTAVVDVMLDYKLAPLHARRMPKVGIVWAADTVMDERDAPKMKGMHFMIQKRTEFGPDGWDTIMPGASFDIVRADGANHFTLMQKEHVSIISDLIDRVMA	soluble
LLGLGVGPGDPELITLKALRLLRAAPVVGYFVAKGKKGNAFGIIEAHLDQAQVRLPLVYPVTTEKLEPPLCYETIISDFYDTAAEQLAAHLDAGRDVAVICEGDPFFYGSYMYLHDRLATRYESEVVPGVCSMLGGAAVLGAPLVYRNQSLSVLSGVLPEEELRRRLADADAAVVMKLGRNFDKVRRVLVELGLERRALYVERATMANQRIVPLERVEPMASPYFSLIVVPGDKWQGGAGGE	not soluble
LLGNTIHVPCQPCRHGHGAPSRGLRGRPADRWPVARATPTLHVCPQNQGVGLDFVRKPEYGRLRWPAYPAGTNNDRLISMRDGGIVALPQLTDEQRAAALEKAAAARRARAELKDRLKRGGTNLTQVLKDAESDEVLGKMKVSALLEALPKVGKVKAQEIMTELEIAPTRRLRGLGDRQRKALLEKFGSA	soluble
LLLGDEAIAQAALDAGLSGVYAYPGTPSTEITEYIQMAPITSERNIHNRWCANEKTAMEAALGMSFVGKRALVCMKHVGMNVAADCFINSAITGVKGGLIVVAADDPSMHSSQNEQDSRFYGDFSLIPMYEPSNQQEAYDMVYNGFEFSEKIGEPILMRMVTRLAHSRSGVENKAQKPQNEISFSEDPRQFILLPGNARKRYKVLLTRQEEFIKASEESPYNRYIDGPNKKTGIVACGIGYNYLMENYPEGCEYPVLKVGQYPLPKKQLMQLIDACDEILVLEDGQPFVEKQLKGYLGIGLKVKGRLDGTLSQDGELNPDTVARALGKENSSEFNVPNIVEMRPPALCEGCGHRDMYITLTQVLKEEYPTHKVFSDIGCYTLGANAPFNAINSCVDMGASITMAKGASDGGLHPAVAVIGDSTFTHSGMTGLLDCVNENANVTIVISDNETTAMTGGQDSAGTGRLEAICAGLGVDPAHIRVVVPLK	not soluble
LLPGAPDCRVYGWIYSSPTPGRAWVLLVHGLGGDHTFFEEPLGGYRVAYDLALRGFKVLAIDAAGHGESCIPGGESWRDKALTLEPGEFFLYHVYLSGVRAVEAALELGAEPG	not soluble
LLVDKKVSVNDVDIGLISLQYLNIIANYTNKKAIEKITDYLVITSKILAKKADNLLNDHQEESVLEYDLATNNFRDKMIANLVEHKRYCDSLGEFEKLRVNRLAYFSKANEMEQFIKTANDQLVTVEDQLPNYISVLKLFHAMNKLLEMRLSSLLTNKNITIKELSVEQVQKELVLAIKQFNYQTVSLKRVLLKLN	not soluble
LPENGPEFKIEISLLKDQARVMIDTTGPSLFKRGYRTEKGGAPIKENMAAAIILLSNWFPDKPFVDPTCGSGTFCIEAAMIGMNIAPGFNRDFAFEEWPWVDEALVTRVRNEADEQADYDIQLDISGFDFDGRMVEIARKNAREVGLEDVVKLKQMRLQDFKTNKINGVLISNPPYGERLLDDKAVDILYNEMGETFAPLKTWSQFILTNDTDFEQKFGRKADKKRKLYNGSLKVDLYQFYGQRVKRVLR	not soluble
LPKNLMVRLRSNTEPLSKKLRVVADYVLENAHEVQYQTITDLAFNTKTSEATVVRLCRDLGYKGYSDFRMALAVDLSQSANQSQPKMDGDICEVSAQSAVDSLMDTAKLIDRAALNRICELVHGAK	not soluble
LPQSVSRAAITAAYRRPETEAVSMLLEQARLPQPVAEQAHKLAYQLADKLRNQKNASGRAGMVQGLLQEFSLSSQEGVALMCLAEALLRIPDKATRDALIRDKISNGNWQSHIGRSPSLFVNAATWGLLFTGKLVSTHNEASLSRSLNRIIGKSGEPLIRKGVDMAMRLMGEQFVTGETIAEALANARKLEEKGFRYSYDMLGEAALTAADAQAYMVSYQQAIHAIGKASNGRGIYEGPGISIKLSALHPRYSRAQYDRVMEELYPRLKSLTLLARQYDIGINIDAEESDRLEISLDLLEKLCFEPELAGWNGIGFVIQAYQKRCPLVIDYLIDLATRSRRRLMIRLVKGAYWDSEIKRAQMDGLEGYPVYTRKVYTDVSYLACAKKLLAVPNLIYPQFATHNAHTLAAIYQLAGQNYYPGQYEFQCLHGMGEPLYEQVTGKVADGKLNRPCRIYAPVGTHETLLAYLVRRLLENGANTSFVNRIADTSLPLDELVADPVTAVEKLAQQEGQTGLPHPKIPLPRDLYGHGRDNSAGLDLANEHRLASLSSALLNSALQKWQALPMLEQPVAAGEMSPVINPAEPSSSVDKLAAALEHHHHHH	soluble
LQQQEEETYADACDEFLDPIMSTLMCDPVVLPSSRVTVDRSTIARHLLSDQTDPFNRSPLTMDQIRPNTELKEKIQRWLAERKQQ	soluble
LRPEDFTTLLQTADFRLRLLEAIAAATRRVYICALYLENEEAGQEMLDALYRAKQRNPQLDVRVMVDWHRAQRGRIGEDQSHCNASWYREEAARRELDIPIYGVPVQTRELFGVLHLKGFVIDDTVFYSGASLNNVYLHKLDKYRFDRYHLIRSPELADAMAGFMAEQFFNDPAVFRLD	not soluble
LSQEETELELLRQFDLAWQYGPCTGITRLQRWHRAEQMGLKPPVEVYQVLKTHPEDSRFQCSLWHLYPL	not soluble
LSSLLKAANLARSTYYYQMATGQAEDRHGALKERIQHIYAQHKGRYGYRRITATLRRAGTLVNHKTVQRLMSALQLKSLVRPKKYRSYLGQVGRVAPNLLQREFEASKPNEKWVTDVTEFNVGGKKLYLSPVLDLYNGEIVAWQTSERPDYTLIREMLDKALRKLRPCETPMLHSDQGWPYQMAAYRRKLAARGLRQSMSRKGNCLDNAAMESFFGTLKSECFRLERFADIDQLRRAIAEYIRYYNHERIKIKLKGLSPVQYRTQPLAA	soluble
LTFSLNFTNKSNDIYGTGWLFDWKGDEKALGIDGSFVPSITSNIDNSLLKDDQFTVYLATNLHVADALRNDQDYEPYKKDQNKQDFTENTKTEFFSLGK	soluble
LTQPLDHRHPEKGSFRQRVIVGHVGYDRPTVIVTEGYGAGYALRPTYREELSELFDANMIFVEHRYFLESTPEPCDWQYLTAENSAEDLHAVTTAFKTLYPGKWISTGISKGGQTSLLYRVFFPDDVDVSVPYVAPLCYAREDGRHEPFLRRVGTEADRKKIEDFQLEVLKRKARLLPRFEKMCTEKNYTFRAPLEEIYDFCVLEYSFSIWQWGTDIRSIPETSASDDTLLDHLLAISGPSYFIVDSPTLSFFVQAARELGYYGYDIAPFKPYLSIKTSKDYLRRLMLPEDMRKMKFDKTLSNKIVRFLKKNDPKMIFIYGQNDPWTAAGVTWLKNKKNIHVFVEPGGSHLARIGTMSEDQKQKVMSLLRGWLEE	not soluble
LVFDEEGNSSWIATDTVKVAASRPVELNPFYIDTVYEVSGKKIAYMVYNEFSTGPNNQATDTEYREQMKQIFARFKGQSPDAFILDLRYNPGGYLSCATDLGSYLAPAADLGKVFCTTLYNDISDPQKIDFPLNTGLASENLNLSKLYVLTSKFTASASEAVINCLRPYIGTENVVVIGETTVGKNVAMEPYQDERYNFILWPVVAYVLNSAGQANYVNGITPDFTLSER	not soluble
MAAAAELRLLEKSLGLKPGNKYSAQGERQIPVLQTNNGPSLMGLSTIATHLVKQASKEHLLGSTAEEKAMVQQWLEFRVTRVDGHSSKEDTQTLLKDLNSYLEDKVYLAGHNITLADILLYYGLHRFIVDLTVQEKEKYLNVSRWFCHIQHYPDIRQHLSSIVFIKNRLYANSH	not soluble
MAAEKKVFVIFDHQEQRHDQPWPSYHIEVPRRLDAILERLNTTKLLTDPRIEHIPRREAEESEILAVHTKRYVDDVKSTETMTVEQQESFCTKYEDIYVNSATWHRAKLAAGASIDLMTSVMAAKRPGIAFIRPPGHHAMPDEGCGFCIFNNVAIAAKAAIQNGQKVLIVDYDVHAGNGTQECVEQMGEGNVQLISIHRYENGHFWPNMPQTGIYHNYKNTINLPLNTIGLTDADYHALFTHIILPTIHAFQPDLLLVSSGFDASIGDPEGSMQVTPAGFATMIRMLIDTGIPVAALLEGGYFLDALAADSEWVLRALLGEEIPRIRVEKIHSAIADTIGRVVKRYEGSCPFFKKVQELRGILGCRVAEEDQQEEATDYTGERTVHPPYETRGIYTPFTEQKVAEFKDQLESILASYTTPPDFSAETEAFHSAIAPHSSEINDFYFGVHEDKILLGTSPAVRLFFELLFTAPYDPKHTIKLYGKVKPEDFGKIELDSRSLGEMKNISIFNNLPIFQL	not soluble
MAAHSIFTTTSTTNSFLYPISSSSSSPNINSSFLGVSLNVNAKFGQSLTLYAVTTPKPLTVFAATKKAVAVLKGNSNVEGVVTLSQDDDGPTTVNVRITGLAPGLHGFHLHEYGDTTNGCMSTGAHFNPNKLTHGAPGDEIRHAGDLGNIVANADGVAEVTLVDNQIPLTGPNSVVGRALVVHELEDDLGKGGHELSLTTGNAGGRLACGVVGLTPI	soluble
MAAIDLNSDLGESYGAWRMGDDEAMLAIVSSANIACGFHAGDPAGIYRTVKAAAEKGVVVGAHVSYPDRVGFGRRDLDATSEELIADVIYQIGALKGVAAAAGTTVRYVKPHGALYNRIANDAKQGQAVIDGIKAIDPSLVLMGLANAPILDLARKAGLAVVAEAFADRAYTPEGQLVSRREAGAVLHDAAKIAERMVQLAREGTLEAIDGSIIKIEAQSICVHGDSPGAVAIAQEIRRRFEADGIAIRSFASDRLEHHHHHH	not soluble
MAAKDRIQAIKQMVANDKKVTVSNLSGIFQVTEETIRRDLEKLEDEGFLTRTYGGAVLNTAVLTENIHFYKRASSFYEEKLLIARKALPFIDNKTTMAADSSSTVMELLKLLQDRSDLTLLTNSAEAIHVLAQSEIKVVSTGGELNKNTLSLQGRITKEIISRYHVDIMVMSCKGLDINSGALDSNEAEAEIKKTMIRQATEVALLVDHSKFDRKAFVQLADFSHINYIITDKSPGAEWIAFCKDNNIQLVWLEHHHHHH	soluble
MAAPEAEVLSSAAVPDLEWYEKSEETHASQIELLETSSTQEPLNASEAFCPRDCMVPVVFPGPVSQEGCCQFTCELLKHIMYQRQQLPLPYEQLKHFYRKPSPQAEEMLKKKPRATTEVSSRKCQQALAELESVLSHLEDFFARTLVPRVLILLGGNALSPKEFYELDLSLLAPYSVDQSLSTAACLRRLFRAIFMADAFSELQAPPLMGTVVMAQGHRNCGEDWFRPKLNYRVPSRGHKLTVTLSCGRPSIRTTAWEDYIWFQAPVTFKGFRE	soluble
